Assay results reported in the supplement of paper PMC11246515.
± gives the standard deviation of the averaged measurements.

Assay: total protein half-life in vivo (active degradation + dilution); higher = more stable protein
[1] = E. coli NCM3722 delta-clpP delta-lon delta-hslV, growth: N-lim chemostat, doubling time 6 h
[2] = E. coli NCM3722 delta-clpP, growth: N-lim chemostat, doubling time 6 h
[3] = E. coli NCM3722 delta-hslV, growth: N-lim chemostat, doubling time 6 h
[4] = E. coli NCM3722 delta-smpB, growth: N-lim chemostat, doubling time 6 h
[5] = wild type E. coli NCM3722, growth: C-lim chemostat, doubling time 3 h
[6] = wild type E. coli NCM3722, growth: C-lim chemostat, doubling time 6 h
[7] = wild type E. coli NCM3722, growth: C-lim chemostat, doubling time 12 h
[8] = wild type E. coli NCM3722, growth: N-lim chemostat, doubling time 6 h
[9] = wild type E. coli NCM3722, growth: N-lim chemostat, doubling time 12 h
[10] = wild type E. coli NCM3722, growth: P-lim chemostat, doubling time 6 h
[11] = wild type E. coli NCM3722, growth: P-lim chemostat, doubling time 12 h
[12] = E. coli NCM3722 delta-lon, growth: N-lim chemostat, doubling time 6 h

Row | Sequence | total protein half-life in vivo [1] | total protein half-life in vivo [2] | total protein half-life in vivo [3] | total protein half-life in vivo [4] | total protein half-life in vivo [5] | total protein half-life in vivo [6] | total protein half-life in vivo [7] | total protein half-life in vivo [8] | total protein half-life in vivo [9] | total protein half-life in vivo [10] | total protein half-life in vivo [11] | total protein half-life in vivo [12]
1 | MKKVAAFVALSLLMAGCVSNDKIAVTPEQLQHHRFVLESVNGKPVTSDKNPPEISFGEKMMISGSMCNRFSGEGKLSNGELTAKGLAMTRMMCANPQLNELDNTISEMLKEGAQVDLTANQLTLATAKQTLTYKLADLMN | 6.45 ± 1.1 h | 6.13 ± 0.01 h | 6.52 ± 1.3 h | 6.01 ± 0.55 h | 2.95 ± 0.68 h | 5.47 ± 1.1 h | 11 ± 0.29 h | 6.111 ± 0.014 h | 11.5 ± 1.1 h | 6 ± 0.54 h | 12.9 ± 0.28 h | –
2 | MKKVWLNRYPADVPTEINPDRYQSLVDMFEQSVARYADQPAFVNMGEVMTFRKLEERSRAFAAYLQQGLGLKKGDRVALMMPNLLQYPVALFGILRAGMIVVNVNPLYTPRELEHQLNDSGASAIVIVSNFAHTLEKVVDKTAVQHVILTRMGDQLSTAKGTVVNFVVKYIKRLVPKYHLPDAISFRSALHNGYRMQYVKPELVPEDLAFLQYTGGTTGVAKGAMLTHRNMLANLEQVNATYGPLLHPGKELVVTALPLYHIFALTINCLLFIELGGQNLLITNPRDIPGLVKELAKYPFTAITGVNTLFNALLNNKEFQQLDFSSLHLSAGGGMPVQQVVAERWVKLTGQYLLEGYGLTECAPLVSVNPYDIDYHSGSIGLPVPSTEAKLVDDDDNEVPPGQPGELCVKGPQVMLGYWQRPDATDEIIKNGWLHTGDIAVMDEEGFLRIVDRKKDMILVSGFNVYPNEIEDVVMQHPGVQEVAAVGVPSGSSGEAVKIFVVKKDPSLTEESLVTFCRRQLTGYKVPKLVEFRDELPKSNVGKILRRELRDEARGKVDNKA | – | 5.82 ± 0.16 h | 5.05 ± 0.23 h | 4.279 ± 0.022 h | 1.68 ± 0.16 h | 3.98 ± 0.57 h | 6.59 ± 0.46 h | 4.879 ± 0.022 h | 10.9 ± 1.6 h | 4.93 ± 0.11 h | 10.8 ± 1.1 h | 5.34 ± 0.82 h
3 | MKKWLLAAGLGLALATSAQAADKIAIVNMGSLFQQVAQKTGVSNTLENEFKGRASELQRMETDLQAKMKKLQSMKAGSDRTKLEKDVMAQRQTFAQKAQAFEQDRARRSNEERGKLVTRIQTAVKSVANSQDIDLVVDANAVAYNSSDVKDITADVLKQVK [P0AEU7] | 7.77 ± 0.22 h | – | 6.97 ± 1 h | 6.63 ± 0.26 h | 3.15 ± 0.35 h | 6 ± 0.15 h | 10.3 ± 0.22 h | 5.62 ± 0.57 h | 13.4 ± 1.8 h | 6.79 ± 1 h | 13.7 ± 0.66 h | 6.66 ± 0.53 h
4 | MKLAHLGRQALMGVMAVALVAGMSVKSFADEGLLNKVKERGTLLVGLEGTYPPFSFQGDDGKLTGFEVEFAQQLAKHLGVEASLKPTKWDGMLASLDSKRIDVVINQVTISDERKKKYDFSTPYTISGIQALVKKGNEGTIKTADDLKGKKVGVGLGTNYEEWLRQNVQGVDVRTYDDDPTKYQDLRVGRIDAILVDRLAALDLVKKTNDTLAVTGEAFSRQESGVALRKGNEDLLKAVNDAIAEMQKDGTLQALSEKWFGADVTK [P0AEM9] | 6.22 ± 0.52 h | 5.74 ± 0.64 h | 6.87 ± 0.34 h | 6.54 ± 0.16 h | 3.47 ± 0.28 h | 6.27 ± 0.63 h | 12.5 ± 2.1 h | 5.71 ± 0.61 h | 14.1 ± 1.8 h | 5.95 ± 0.58 h | 14.49 ± 0.065 h | 7.33 ± 0.21 h
5 | MKLIITEDYQEMSRVAAHHLLGYMSKTRRVNLAITAGSTPKGMYEYLTTLVKGKPWYDNCYFYNFDEIPFRGKEGEGVTITNLRNLFFTPAGIKEENIQKLTIDNYREHDQKLAREGGLDLVVLGLGADGHFCGNLPNTTHFHEQTVEFPIQGEMVDIVAHGELGGDFSLVPDSYVTMGPKSIMAAKNLLIIVSGAGKAQALKNVLQGPVTEDVPASVLQLHPSLMVIADKAAAAELALG | 5.36 ± 0.6 h | – | – | – | 2.47 h | 3.24 h | – | 2.68 h | – | – | – | –
6 | MKLKTTLFGNVYQFKDVKEVLAKANELRSGDVLAGVAAASSQERVAAKQVLSEMTVADIRNNPVIAYEDDCVTRLIQDDVNETAYNQIKNWSISELREYVLSDETSVDDIAFTRKGLTSEVVAAVAKICSNADLIYGAKKMPVIKKANTTIGIPGTFSARLQPNDTRDDVQSIAAQIYEGLSFGVGDAVIGVNPVTDDVENLSRVLDTIYGVIDKFNIPTQGCVLAHVTTQIEAIRRGAPGGLIFQSICGSEKGLKEFGVELAMLDEARAVGAEFNRIAGENCLYFETGQGSALSAGANFGADQVTMEARNYGLARHYDPFIVNTVVGFIGPEYLYNDRQIIRAGLEDHFMGKLSGISMGCDCCYTNHADADQNLNENLMILLATAGCNYIMGMPLGDDIMLNYQTTAFHDTATVRQLLNLRPSPEFERWLESMGIMANGRLTKRAGDPSLFF [P0AEJ6] | 5.95 ± 1.3 h | 5.45 ± 0.56 h | 4.07 ± 0.41 h | 3.91 ± 0.24 h | 3.36 ± 0.3 h | 6.26 ± 0.2 h | 11.1 ± 0.83 h | 3.82 ± 0.15 h | 6.18 ± 0.099 h | 6.37 ± 0.16 h | 12 ± 0.84 h | 4.68 ± 0.12 h
